The target of the test is GDP-bound KRAS4b-farnesyl (farnesylated, not carboxy-methylated) (UniProt P01116). The test is described as follows: ITC.

Kd data for one substance are collected here from PMC6428923.

Substance “calmodulin (CaM), full-length, amino acids 2-148 (from UniProt P0DP23 2-148) (natural protein)” had a Kd of 1500 nM.
